Assay results reported in PMC12024163, “Competitive Ligand-Induced Recruitment of Coactivators to Specific PPARα/δ/γ Ligand-Binding Domains Revealed by Dual-Emission FRET and X-Ray Diffraction of Cocrystals” (Antioxidants, 2025).
No end group written: not given here. *: point of attachment. Biotin = O=C1N[C@H]2[C@H](CS[C@H]2CCCCC(=O)*)N1

T1: Human PPARδ-LBD (amino acids 170–441), amino-terminal His-tagged (human, UniProt Q03181 170-441)
T1 construct: Form used in the FRET assays; also called hPPARδ-LBD; PPARβ; source: Rosetta (DE3) pLysS cells, pET28a, purified (TALON, HiTrap Q, Superdex 75); not shown: His tag, N-terminal, kept
T1 sequence (looked up): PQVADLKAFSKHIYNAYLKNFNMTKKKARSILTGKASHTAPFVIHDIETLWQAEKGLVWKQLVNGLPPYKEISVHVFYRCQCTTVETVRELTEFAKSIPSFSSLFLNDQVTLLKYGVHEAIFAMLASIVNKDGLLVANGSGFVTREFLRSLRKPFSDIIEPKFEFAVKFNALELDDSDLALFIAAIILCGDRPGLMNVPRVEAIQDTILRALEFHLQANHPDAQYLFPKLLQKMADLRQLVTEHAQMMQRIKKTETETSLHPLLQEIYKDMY

T2: Human PPARγ-LBD (amino acids 203–477 in isoform 1), amino-terminal His-tagged (human, UniProt P37231-2 203-477)
T2 construct: numbers count on: isoform 1; Form used in the FRET assays; mainly prepared as apo (unliganded) form; also called hPPARγ-LBD; NR1C3; source: Rosetta (DE3) pLysS cells, pET28a, purified (TALON, HiTrap Q, Superdex 75); not shown: His tag, N-terminal, kept
T2 sequence (looked up): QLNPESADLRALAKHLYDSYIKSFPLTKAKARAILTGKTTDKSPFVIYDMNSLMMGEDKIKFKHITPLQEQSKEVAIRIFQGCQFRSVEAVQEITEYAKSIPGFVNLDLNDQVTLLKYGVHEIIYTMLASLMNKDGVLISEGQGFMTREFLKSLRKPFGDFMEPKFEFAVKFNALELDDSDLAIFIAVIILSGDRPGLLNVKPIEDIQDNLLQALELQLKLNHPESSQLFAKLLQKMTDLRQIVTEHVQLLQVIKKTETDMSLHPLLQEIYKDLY

T3: Human PPARα-LBD (amino acids 200–468), amino-terminal His-tagged (human, UniProt Q07869 200-468)
T3 construct: Form used in the FRET assays; detected through the His tag with a Tb cryptate anti-6×His antibody; Routine preparations hold intrinsic fatty acids; also called hPPARα-LBD; NR1C1; source: Rosetta (DE3) pLysS cells, pET28a, purified (TALON, HiTrap Q, Superdex 75); not shown: His tag, N-terminal, kept
T3 sequence (looked up): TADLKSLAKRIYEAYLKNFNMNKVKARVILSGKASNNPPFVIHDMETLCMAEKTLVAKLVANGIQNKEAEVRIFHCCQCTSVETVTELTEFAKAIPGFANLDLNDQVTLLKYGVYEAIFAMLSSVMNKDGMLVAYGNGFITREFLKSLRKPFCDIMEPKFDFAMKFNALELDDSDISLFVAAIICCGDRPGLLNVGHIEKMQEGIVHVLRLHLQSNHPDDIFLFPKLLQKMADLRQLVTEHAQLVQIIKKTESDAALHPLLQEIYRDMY

B1: NCoR1 corepressor peptide, biotin-labeled (AAs 2255–2275) (peptide)
peptide: Biotin-ADPASNLGLEDIIRKALMGSF
notes: NCoR1 (nuclear receptor corepressor 1), human, AAs 2255–2275, LXXXIXXXL motif LEDIIRKAL; also called ULight-NCoR1; N-CoR ID2; source: synthetic peptide (GenScript)
B2: TRAP220 coactivator peptide, biotin-labeled (AAs 631–655) (peptide)
peptide: Biotin-PVSSMAGNTKNHPMLMNLLKDNPAQ
notes: thyroid hormone receptor-associated protein 220 (TRAP220), human, AAs 631–655, LXXLL motif LMNLL; also called ULight-TRAP220; ULight-TRAP; source: synthetic peptide (GenScript)
B3: CBP coactivator peptide, biotin-labeled (AAs 56–80) (peptide)
peptide: Biotin-SGNLVPDAASKHKQLSELLRGGSGS
notes: also called ULight-CBP; source: synthetic peptide (GenScript)
B4: SRC1 coactivator peptide, biotin-labeled (AAs 676–700) (peptide)
peptide: Biotin-CPSSHSSLTERHKILHRLLQEGSPS
notes: also called ULight-SRC1; SRC-1 M2; source: synthetic peptide (GenScript)
B5: NCoR2 corepressor peptide, biotin-labeled (AAs 2321–2341) (peptide)
peptide: Biotin-EHASTNMGLEAIIRKALMGKY
notes: NCoR2 (nuclear receptor corepressor 2, SMRT), human, AAs 2321–2341, LXXXIXXXL motif LEAIIRKAL; also called ULight-NCoR2; SMRT; source: synthetic peptide (GenScript)
B6: PGC1α coactivator peptide, biotin-labeled (AAs 137–155) (peptide)
peptide: Biotin-EAEEPSLLKKLLLAPANTQ
notes: also called ULight-PGC1α; source: synthetic peptide (GenScript)

How the values were obtained:
Conditions in all cases: both partners purified
[1] = molecular target: T1, Human PPARδ-LBD (amino acids 170–441), …; experiment: FRET or BRET; dual-emission TR-FRET: ULight-corepressor peptide and FITC-coactivator peptide together in one well with the His-tagged LBD and Tb anti-6×His antibody; agonist titrated from vehicle (pemafibrate, seladelpar or pioglitazone); buffer A, room temperature
[2] = molecular target: T2, Human PPARγ-LBD (amino acids 203–477 in …); experiment: as above
[3] = molecular target: T3, Human PPARα-LBD (amino acids 200–468), …; experiment: FRET or BRET; single-emission TR-FRET (LANCE Ultra); His-tagged LBD (9.5 µL of 400 nM) with Tb cryptate anti-6×His antibody, biotin peptide (5 µL of 1 µM) with ULight-Streptavidin or FITC-Ahx peptide; buffer A (20 mM HEPES pH 7.4, 150 mM NaCl, 1 mM EDTA, 1 mM DTT, 0.005% Tween 20, 0.1% fatty acid-free BSA); room temperature, 2 h; without agonist (vehicle 1% DMSO)
[4] = molecular target: T3, Human PPARα-LBD (amino acids 200–468), …; experiment: FRET or BRET; dual-emission TR-FRET: a FITC-coactivator peptide and a ULight-coactivator peptide together in one well with the His-tagged LBD and Tb anti-6×His antibody; agonist titrated (pemafibrate, seladelpar or pioglitazone); buffer A, room temperature
[5] = molecular target: T1, Human PPARδ-LBD (amino acids 170–441), …; experiment: as above
[6] = molecular target: T2, Human PPARγ-LBD (amino acids 203–477 in …); experiment: as above
[7] = molecular target: T3, Human PPARα-LBD (amino acids 200–468), …; experiment: FRET or BRET; single-emission TR-FRET as a1, with the agonist titrated (pemafibrate for PPARα-LBD, seladelpar for PPARδ-LBD, pioglitazone for PPARγ-LBD); signal ratios normalised to 1% DMSO
[8] = molecular target: T1, Human PPARδ-LBD (amino acids 170–441), …; experiment: as above
[9] = molecular target: T2, Human PPARγ-LBD (amino acids 203–477 in …); experiment: as above
[10] = molecular target: T2, Human PPARγ-LBD (amino acids 203–477 in …); experiment: FRET or BRET; single-emission TR-FRET (LANCE Ultra); His-tagged LBD (9.5 µL of 400 nM) with Tb cryptate anti-6×His antibody, biotin peptide (5 µL of 1 µM) with ULight-Streptavidin or FITC-Ahx peptide; buffer A (20 mM HEPES pH 7.4, 150 mM NaCl, 1 mM EDTA, 1 mM DTT, 0.005% Tween 20, 0.1% fatty acid-free BSA); room temperature, 2 h; without agonist (vehicle 1% DMSO)

Binder	binding result [1]	binding result [2]	binding result [3]	maximal recruitment in dual-FRET with pemafibrate, that of FITC-CBP in the same well taken as 100 [4] [FITC-CBP = 100]	maximal recruitment in dual-FRET with pemafibrate, that of FITC-TRAP in the same well taken as 100 [4] [FITC-TRAP = 100]	maximal recruitment in dual-FRET with seladelpar, that of FITC-CBP in the same well taken as 100 [5] [FITC-CBP = 100]	maximal recruitment in dual-FRET with seladelpar, that of FITC-TRAP in the same well taken as 100 [5] [FITC-TRAP = 100]	maximal recruitment in dual-FRET with pioglitazone, that of FITC-CBP in the same well taken as 100 [6] [FITC-CBP = 100]	maximal recruitment in dual-FRET with pioglitazone, that of FITC-TRAP in the same well taken as 100 [6] [FITC-TRAP = 100]	EC50 of pemafibrate (the ligand is titrated) for recruitment of the peptide [7] [nM]	EC50 of seladelpar (the ligand is titrated) for recruitment of the peptide [8] [nM]	EC50 of pioglitazone (the ligand is titrated) for recruitment of the peptide [9] [nM]	binding result [10]
B1	binds	binds	binds	–	–	–	–	–	–	–	–	–	–
B2	–	–	–	63.3	75.8	402	108	107	65.8	130	54.8	1910	–
B3	–	–	–	431	508	508	372	237	295	60.9	33.2	637	–
B4	–	–	–	115	77	156	55.5	52	57.1	87.8	53.5	2110	–
B5	binds	–	binds	–	–	–	–	–	–	–	–	–	binds
B6	–	–	–	108	150	359	313	–	–	82	48.1	–	–
